What was measured:
[1] = molecular target: T1, human corin variant T555I, Q9Y5Q5
T1 chain: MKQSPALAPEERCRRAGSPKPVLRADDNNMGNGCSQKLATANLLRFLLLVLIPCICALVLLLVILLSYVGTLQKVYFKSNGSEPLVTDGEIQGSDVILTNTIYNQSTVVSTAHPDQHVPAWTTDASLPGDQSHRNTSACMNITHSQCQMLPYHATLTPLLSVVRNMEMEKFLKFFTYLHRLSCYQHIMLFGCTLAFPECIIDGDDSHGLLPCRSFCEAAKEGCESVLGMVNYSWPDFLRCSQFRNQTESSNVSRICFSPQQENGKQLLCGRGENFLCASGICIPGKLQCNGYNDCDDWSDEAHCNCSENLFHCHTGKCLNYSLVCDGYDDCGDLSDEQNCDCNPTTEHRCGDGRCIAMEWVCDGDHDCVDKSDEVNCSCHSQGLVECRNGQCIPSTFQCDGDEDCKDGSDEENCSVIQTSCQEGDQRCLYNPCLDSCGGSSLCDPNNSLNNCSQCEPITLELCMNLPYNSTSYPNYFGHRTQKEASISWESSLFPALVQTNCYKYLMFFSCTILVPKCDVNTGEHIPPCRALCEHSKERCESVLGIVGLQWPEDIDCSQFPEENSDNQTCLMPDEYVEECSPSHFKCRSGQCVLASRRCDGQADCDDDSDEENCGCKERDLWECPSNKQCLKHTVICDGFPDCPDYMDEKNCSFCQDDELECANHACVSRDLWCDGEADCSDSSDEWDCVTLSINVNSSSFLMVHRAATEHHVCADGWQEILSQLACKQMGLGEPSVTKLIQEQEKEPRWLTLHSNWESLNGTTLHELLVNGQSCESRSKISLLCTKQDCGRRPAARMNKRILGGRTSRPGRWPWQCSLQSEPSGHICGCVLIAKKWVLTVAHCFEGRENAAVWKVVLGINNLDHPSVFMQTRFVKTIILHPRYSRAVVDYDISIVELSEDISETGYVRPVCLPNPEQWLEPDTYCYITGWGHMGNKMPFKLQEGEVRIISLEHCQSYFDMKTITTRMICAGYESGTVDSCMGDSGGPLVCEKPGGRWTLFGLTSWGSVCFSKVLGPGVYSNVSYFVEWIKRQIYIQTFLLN

[2] = molecular target: T2, recombinant human corin wild-type (WT), Q9Y5Q5
T2 chain: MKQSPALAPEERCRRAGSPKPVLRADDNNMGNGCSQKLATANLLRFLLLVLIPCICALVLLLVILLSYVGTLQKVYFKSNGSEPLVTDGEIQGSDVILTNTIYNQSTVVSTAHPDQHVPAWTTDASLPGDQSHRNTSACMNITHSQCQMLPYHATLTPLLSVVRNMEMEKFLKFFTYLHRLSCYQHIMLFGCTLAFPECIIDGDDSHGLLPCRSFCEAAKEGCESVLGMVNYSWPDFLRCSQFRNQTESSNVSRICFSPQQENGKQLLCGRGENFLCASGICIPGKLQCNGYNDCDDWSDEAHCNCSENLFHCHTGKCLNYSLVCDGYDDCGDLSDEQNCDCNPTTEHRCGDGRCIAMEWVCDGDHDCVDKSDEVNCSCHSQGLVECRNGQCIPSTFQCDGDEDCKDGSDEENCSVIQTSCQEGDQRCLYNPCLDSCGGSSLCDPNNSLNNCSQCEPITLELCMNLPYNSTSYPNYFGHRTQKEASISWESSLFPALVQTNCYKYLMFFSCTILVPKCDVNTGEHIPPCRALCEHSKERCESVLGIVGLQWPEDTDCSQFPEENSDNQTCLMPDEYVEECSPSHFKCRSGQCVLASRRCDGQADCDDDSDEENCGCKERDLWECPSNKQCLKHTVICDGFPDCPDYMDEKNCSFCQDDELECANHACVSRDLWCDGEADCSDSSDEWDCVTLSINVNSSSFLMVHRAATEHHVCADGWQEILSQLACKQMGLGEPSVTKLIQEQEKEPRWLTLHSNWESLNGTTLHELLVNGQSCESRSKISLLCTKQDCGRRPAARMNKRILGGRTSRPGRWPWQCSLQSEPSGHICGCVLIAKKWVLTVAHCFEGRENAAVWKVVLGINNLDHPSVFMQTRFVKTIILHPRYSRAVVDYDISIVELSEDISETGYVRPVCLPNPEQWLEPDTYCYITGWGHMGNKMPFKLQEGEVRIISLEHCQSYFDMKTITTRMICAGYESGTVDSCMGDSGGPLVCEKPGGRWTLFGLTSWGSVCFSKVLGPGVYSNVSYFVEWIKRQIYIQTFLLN

[3] = molecular target: human corin mutant S472G (human) (UniProt Q9Y5Q5); test: cell-based or functional assay
[4] = molecular target: human corin mutant K317E (human) (UniProt Q9Y5Q5); test: cell-based or functional assay
[5] = molecular target: human corin mutant R539C (human) (UniProt Q9Y5Q5); test: cell-based or functional assay

B1: recombinant human proprotein convertase subtilisin/kexin-6 (PCSK6) with a C-terminal flag tag (protein)
chain: QVRSDPQALYFNDPIWSNMWYLHCGDKNSRCRSEMNVQAAWKRGYTGKNVVVTILDDGIERNHPDLAPNYDSYASYDVNGNDYDPSPRYDASNENKHGTRCAGEVAASANNSYCIVGIAYNAKIGGIRMLDGDVTDVVEAKSLGIRPNYIDIYSASWGPDDDGKTVDGPGRLAKQAFEYGIKKGRQGLGSIFVWASGNGGREGDYCSCDGYTNSIYTISVSSATENGYKPWYLEECASTLATTYSSGAFYERKIVTTDLRQRCTDGHTGTSVSAPMVAGIIALALEANSQLTWRDVQHLLVKTSRPAHLKASDWKVNGAGHKVSHFYGFGLVDAEALVVEAKKWTAVPSQHMCVAASDKRPRSIPLVQVLRTTALTSACAEHSDQRVVYLEHVVVRTSISHPRRGDLQIYLVSPSGTKSQLLAKRLLDLSNEGFTNWEFMTVHCWGEKAEGQWTLEIQDLPSQVRNPEKQGKLKEWSLILYGTAEHPYHTFSAHQSRSRMLELSAPELEPPKAALSPSQVEVPEDEEDYTAQSTPGSANILQTSVCHPECGDKGCDGPNADQCLNCVHFSLGSVKTSRKCVSVCPLGYFGDTAARRCRRCHKGCETCSSRAATQCLSCRRGFYHHQEMNTCVTLCPAGFYADESQKNCLKCHPSCKKCVDEPEKCTVCKEGFSLARGSCIPDCEPGTYFDSELIRCGECHHTCGTCVGPGREECIHCAKNFHFHDWKCVPACGEGFYPEEMPGLPHKVCRRCDENCLSCAGSSRNCSRCKTGFTQLGTSCITNHTCSNADETFCEMVKSNRLCERKLFIQFCCRTCLLAG
B1 was tested, and the “PCSK6-mediated activation cleavage (Western blot, densitometry)” value [1] was “PCSK6-mediated activation cleavage was detected in corin WT and variants T555I or Q568P, but not variant T555I/Q568P”, the “PCSK6-mediated activation cleavage (Western blot, densitometry)” value [2] was “PCSK6-mediated activation cleavage was detected in corin WT and variants T555I or Q568P, but not variant T555I/Q568P” and the reduction in PCSK6-mediated corin activation compared with WT corin (Western blot, densitometry) (% reduction vs WT corin) [3] was 99. It also gave a reduction in PCSK6-mediated corin activation compared with WT corin (Western blot, densitometry) (% reduction vs WT corin) [4] of 39 and a reduction in PCSK6-mediated corin activation compared with WT corin (Western blot, densitometry) (% reduction vs WT corin) [5] of 62.
